This note sets out measurements from article PMC10653854 (mBio, 2023).

What all share (details): both partners purified
Assay [1] has as its target T1, yellow fever virus (YFV) strain Asibi soluble E ectodomain (sE) (yellow fever virus, strain Asibi). Kind of assay: ITC.
Assay [2] concerns the target T1, yellow fever virus (YFV) strain Asibi …. The experiment in a line: SPR; pH 8; pr injected over immobilized sE; Biacore T200, 25°C.
Assay [3] shares this target. Kind of assay: SPR; pH 6; pr injected over immobilized sE; Biacore T200, 25°C.

“And” between values parts separate entries of the source, which are not always exact repeats. Identical values can stand only once.

B1: recombinant purified yellow fever virus (YFV) pr protein (natural protein)
chain: not shown
Turning to B1, in assay [1], the dH was -16.6 kcal/mol and -16.3 kcal/mol; the “stoichiometry N” value worked out at 0.9. In assay [2], this molecule displayed a Kd of 19.7 nM, a koff of 0.00134 s⁻¹ and a kon of 70000 M⁻¹ s⁻¹. Further, in assay [3], binding was characterised by a dissociation constant (Kd) of 6.2 nM, the koff was determined as 0.00236 s⁻¹ and the kon worked out at 380000 M⁻¹ s⁻¹.
